Source: patent US20080274950A1 (BABRAHAM INSTITUTE, published 2008)
Numbering of substitutions follows the chain as printed. Names and notes keep the numbering of the source. Each block holds one binder with its values, some of them ahead of it.

Legend:
[1] = biological target: T1, full length chicken N-cadherin with the N-terminus extended by two glycine residues (GG) expressed on K562 … (chicken, UniProt P10288 165-912); test: adhesion of K562 transfectants to coated N-cadherin Fc
T1 construct: whole, on cells; also called cells expressing the GG N-terminal extension mutant; K562 GG
T1 sequence: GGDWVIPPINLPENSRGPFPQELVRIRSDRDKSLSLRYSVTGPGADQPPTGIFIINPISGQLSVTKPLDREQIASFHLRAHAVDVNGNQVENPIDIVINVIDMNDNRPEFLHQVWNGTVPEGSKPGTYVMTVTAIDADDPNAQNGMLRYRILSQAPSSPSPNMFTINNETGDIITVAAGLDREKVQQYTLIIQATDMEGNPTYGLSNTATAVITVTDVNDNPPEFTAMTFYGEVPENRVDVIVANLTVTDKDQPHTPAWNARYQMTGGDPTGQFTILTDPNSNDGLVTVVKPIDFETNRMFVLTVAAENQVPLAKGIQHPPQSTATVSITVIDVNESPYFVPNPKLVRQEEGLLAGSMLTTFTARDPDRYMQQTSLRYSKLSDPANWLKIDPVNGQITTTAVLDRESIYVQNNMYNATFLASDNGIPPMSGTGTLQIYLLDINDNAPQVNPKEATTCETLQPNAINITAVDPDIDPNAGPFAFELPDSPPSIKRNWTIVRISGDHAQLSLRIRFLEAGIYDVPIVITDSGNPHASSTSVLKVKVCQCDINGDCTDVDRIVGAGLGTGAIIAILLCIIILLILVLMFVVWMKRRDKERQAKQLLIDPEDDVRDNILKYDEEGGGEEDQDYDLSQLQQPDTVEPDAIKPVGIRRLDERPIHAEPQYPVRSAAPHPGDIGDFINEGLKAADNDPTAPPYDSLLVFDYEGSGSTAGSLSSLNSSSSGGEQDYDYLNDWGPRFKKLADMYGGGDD
Protocol: (§1) Adhesion tests were conducted substantially as described in Example 1. Briefly, K562 Cells or L cells transfected with wild type or mutant N-cadherin were allowed to settle for 45 minutes at 37° C. onto N-cadherin Fc fusion proteins coated at 1 μg/ml to a 96 well plate. Non-adherent cells were then washed off and residual adherent cells were quantitated by measuring acid phosphatase activity. Assays were conducted in quadruplicate and results are expressed as % cells adhering +/−SEM.

[2] = biological target: T2, full length chicken N-cadherin with the mutation E89A expressed on K562 cells (chicken, UniProt P10288 165-912, E89A); test: adhesion of K562 transfectants to N-cadherin Fc coated at 1 µg/ml; reversed by chelation of calcium
T2 construct: whole, on cells; also called cells expressing the E89A mutation; K562 E89A
T2 sequence (looked up): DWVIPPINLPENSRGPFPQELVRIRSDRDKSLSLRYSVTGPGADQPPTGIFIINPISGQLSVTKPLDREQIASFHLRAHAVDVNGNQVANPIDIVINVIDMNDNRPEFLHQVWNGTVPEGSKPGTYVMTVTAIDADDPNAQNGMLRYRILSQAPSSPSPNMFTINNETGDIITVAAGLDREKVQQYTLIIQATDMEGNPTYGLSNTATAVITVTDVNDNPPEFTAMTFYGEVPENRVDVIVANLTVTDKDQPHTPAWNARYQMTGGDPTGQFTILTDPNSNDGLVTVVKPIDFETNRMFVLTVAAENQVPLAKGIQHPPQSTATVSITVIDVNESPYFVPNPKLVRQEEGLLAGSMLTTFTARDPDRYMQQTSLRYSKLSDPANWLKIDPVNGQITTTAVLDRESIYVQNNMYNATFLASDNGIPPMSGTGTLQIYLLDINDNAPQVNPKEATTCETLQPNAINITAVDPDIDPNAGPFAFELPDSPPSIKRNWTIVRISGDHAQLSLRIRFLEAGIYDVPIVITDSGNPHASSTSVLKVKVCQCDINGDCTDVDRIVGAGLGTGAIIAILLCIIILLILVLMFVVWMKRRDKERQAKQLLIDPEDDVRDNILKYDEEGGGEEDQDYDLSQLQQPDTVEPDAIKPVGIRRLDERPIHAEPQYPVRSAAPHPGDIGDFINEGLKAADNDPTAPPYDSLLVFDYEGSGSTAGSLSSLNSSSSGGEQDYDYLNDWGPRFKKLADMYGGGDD
Protocol: as §1

[3] = biological target: T3, human N-cadherin naturally expressed on DX3 melanoma cells (human, UniProt P19022 160-906); test: adhesion of DX3 cells to coated monomeric N-cadherin-Fc, oxidising buffer
T3 construct: also called DX3 Cells; N-cadherin+ve DX3 melanoma cells
T3 sequence: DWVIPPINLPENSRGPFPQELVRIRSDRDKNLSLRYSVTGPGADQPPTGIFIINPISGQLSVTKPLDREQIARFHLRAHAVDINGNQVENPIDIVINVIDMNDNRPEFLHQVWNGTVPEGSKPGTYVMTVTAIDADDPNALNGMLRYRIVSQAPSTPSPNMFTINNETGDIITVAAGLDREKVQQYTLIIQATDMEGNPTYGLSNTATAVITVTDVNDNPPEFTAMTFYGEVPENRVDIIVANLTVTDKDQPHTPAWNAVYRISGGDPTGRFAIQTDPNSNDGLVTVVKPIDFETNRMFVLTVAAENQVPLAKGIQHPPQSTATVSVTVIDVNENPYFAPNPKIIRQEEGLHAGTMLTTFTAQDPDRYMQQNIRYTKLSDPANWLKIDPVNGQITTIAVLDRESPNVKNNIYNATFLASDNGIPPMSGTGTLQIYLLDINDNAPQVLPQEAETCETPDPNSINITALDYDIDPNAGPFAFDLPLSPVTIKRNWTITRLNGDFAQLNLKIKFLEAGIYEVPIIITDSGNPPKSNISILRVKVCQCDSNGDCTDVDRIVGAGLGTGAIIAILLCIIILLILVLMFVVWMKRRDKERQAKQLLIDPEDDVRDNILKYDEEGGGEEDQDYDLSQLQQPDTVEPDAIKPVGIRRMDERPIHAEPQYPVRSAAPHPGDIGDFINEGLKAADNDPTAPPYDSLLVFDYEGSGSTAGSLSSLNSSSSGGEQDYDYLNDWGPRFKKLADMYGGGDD
Protocol: Monomeric or dimeric N-cadherin-Fc fusion protein in Cos cell supernatants was added as described for the ELISA assay. DX3 Cells, a human melanoma cell line which expresses N-cadherin, were dissociated with Cell Dissociation Solution (Sigma, code C5789), resuspended in HBSS with 2% FCS and assessed for adhesion to wild type or mutant N-cadherin-Fc as previously described (Corps et al., 2001). Microscopic examination established that the cells were present as a single cell suspension as they settled onto the plate. For assays conducted in reducing conditions, 10 mM DTT was present during the adhesion and washing steps. Determinations were conducted in triplicate and results are presented as mean +/−sem.

[4] = biological target: the molecule itself; test: disulphide-bonded cis-dimers in the coating layer; non-reducing SDS-PAGE and immunoblot
Protocol: Monomeric N-cadherin-Fc (1 μg/ml) bearing the three alternative cysteine point mutations, D1C, R25C or D27C, was immobilised on 96-well plates with goat antihuman IgG Fe as previously described for E-cadherin-Fc (Corps et al., 2001). Unbound cadherin was removed by washing with HBSS, 0.1% BSA, followed by HBSS alone. The plates were not blocked with additional protein. K562 transfectants expressing N-cadherin bearing complementary or non-complementary point mutations (6×10^4 Cells in 100 μl HBSS containing 10 mM DTT), in single cell suspension, were added to the coated wells which contained 100 μl HBSS. The final concentration of DTT was therefore 5 mM DTT during the adhesion stage. The cells were allowed to settle for 10 min at room temperature before incubation at 37° C. for 30 minutes to complete adhesion. […] Adherent cells from a pool of 4 wells for each experimental condition were then solubilised in sample buffer for SDS-PAGE and analysed on NuPAGE Novex gradient gels, 3-8% or 4-12%, (Invitrogen), under nonreducing or reducing conditions. Cellular cadherin was detected by immunoblotting using rabbit pan anti-cadherin antiserum specific for the cytoplasmic domain. Alternatively, N-cadherin-Fc fusion protein was detected with rabbit anti-human IgG, Fc-specific (Pierce, code 31142). […]

[5] = biological target: T2, full length chicken N-cadherin with the …; test: adhesion of K562 transfectants to coated N-cadherin Fc
Protocol: as §1

[6] = biological target: T1, full length chicken N-cadherin with the …; test: adhesion of K562 transfectants to N-cadherin Fc coated at 1 µg/ml
Protocol: as §1

binding result [2]: binds
B1: chicken N-cadherin Fc fusion protein with the N-terminus extended by two glycine residues (GG) (Fc fusion)
chain: GGDWVIPPINLPENSRGPFPQELVRIRSDRDKSLSLRYSVTGPGADQPPTGIFIINPISGQLSVTKPLDREQIASFHLRAHAVDVNGNQVENPIDIVINVIDMNDNRPEFLHQVWNGTVPEGSKPGTYVMTVTAIDADDPNAQNGMLRYRILSQAPSSPSPNMFTINNETGDIITVAAGLDREKVQQYTLIIQATDMEGNPTYGLSNTATAVITVTDVNDNPPEFTAMTFYGEVPENRVDVIVANLTVTDKDQPHTPAWNARYQMTGGDPTGQFTILTDPNSNDGLVTVVKPIDFETNRMFVLTVAAENQVPLAKGIQHPPQSTATVSITVIDVNESPYFVPNPKLVRQEEGLLAGSMLTTFTARDPDRYMQQTSLRYSKLSDPANWLKIDPVNGQITTTAVLDRESIYVQNNMYNATFLASDNGIPPMSGTGTLQIYLLDINDNAPQVNPKEATTCETLQPNAINITAVDPDIDPNAGPFAFELPDSPPSIKRNWTIVRISGDHAQLSLRIRFLEAGIYDVPIVITDSGNPHASSTSVLKVKVCQCDINGDCTDVDRIVGAGLGTG
notes: extracellular domain; also called GG extension mutant; GG mutant; not shown: hinge region, CH2 and CH3 domains of human IgG1 heavy chain (vector pIgSig)
binding result [1]: no binding (tested: Fc fusion protein coated at 1 µg/ml)

binding result [3]: binds
B2: monomeric chicken N-cadherin-Fc with the mutation D1C (Fc fusion, UniProt P10288 165-728, looked up)
chain: CWVIPPINLPENSRGPFPQELVRIRSDRDKSLSLRYSVTGPGADQPPTGIFIINPISGQLSVTKPLDREQIASFHLRAHAVDVNGNQVENPIDIVINVIDMNDNRPEFLHQVWNGTVPEGSKPGTYVMTVTAIDADDPNAQNGMLRYRILSQAPSSPSPNMFTINNETGDIITVAAGLDREKVQQYTLIIQATDMEGNPTYGLSNTATAVITVTDVNDNPPEFTAMTFYGEVPENRVDVIVANLTVTDKDQPHTPAWNARYQMTGGDPTGQFTILTDPNSNDGLVTVVKPIDFETNRMFVLTVAAENQVPLAKGIQHPPQSTATVSITVIDVNESPYFVPNPKLVRQEEGLLAGSMLTTFTARDPDRYMQQTSLRYSKLSDPANWLKIDPVNGQITTTAVLDRESIYVQNNMYNATFLASDNGIPPMSGTGTLQIYLLDINDNAPQVNPKEATTCETLQPNAINITAVDPDIDPNAGPFAFELPDSPPSIKRNWTIVRISGDHAQLSLRIRFLEAGIYDVPIVITDSGNPHASSTSVLKVKVCQCDINGDCTDVDRIVGAGLGT
notes: extracellular domain; not shown: hinge region, CH2 and CH3 domains of human IgG1 heavy chain (vector pIgSig)
binding result [4]: binds

binding result [6]: binds
B3: chicken N-cadherin Fc fusion protein with the mutation E89A (Fc fusion, UniProt P10288 165-728, looked up)
chain: B2 chain with C1D, E89A
notes: extracellular domain; also called E89A mutant; E89A Fc fusion protein; not shown: hinge region, CH2 and CH3 domains of human IgG1 heavy chain (vector pIgSig)
binding result [5]: no binding (tested: Fc fusion protein coated at 1 µg/ml)
